Test results as given in patent publication US9914914B2, “Polymerase capable of producing non-DNA nucleotide polymers” (Medical Research Council, priority 2012, dated 2018).
Substitutions are numbered along the chain they refer to. Names may count otherwise. “Also recorded” adds a separate entry of the source.

B1: D4K: Tgo polymerase with V93Q, D141A, E143A, L403P, A485L, P657T, E658Q, K659H, Y663H, E664K, D669A, K671N, T676I; SEQ ID NO:5 (protein)
chain: MILDTDYITEDGKPVIRIFKKENGEFKIDYDRNFEPYIYALLKDDSAIEDVKKITAERHGTTVRVVRAEKVKKKFLGRPIEVWKLYFTHPQDQPAIRDKIKEHPAVVDIYEYDIPFAKRYLIDKGLIPMEGDEELKMLAFAIATLYHEGEEFAEGPILMISYADEEGARVITWKNIDLPYVDVVSTEKEMIKRFLKVVKEKDPDVLITYNGDNFDFAYLKKRSEKLGVKFILGREGSEPKIQRMGDRFAVEVKGRIHFDLYPVIRRTINLPTYTLEAVYEAIFGQPKEKVYAEEIAQAWETGEGLERVARYSMEDAKVTYELGKEFFPMEAQLSRLVGQSLWDVSRSSTGNLVEWFLLRKAYERNELAPNKPDERELARRRESYAGGYVKEPERGLWENIVYPDFRSLYPSIIITHNVSPDTLNREGCEEYDVAPQVGHKFCKDFPGFIPSLLGDLLEERQKVKKKMKATIDPIEKKLLDYRQRLIKILANSFYGYYGYAKARWYCKECAESVTAWGRQYIETTIREIEEKFGFKVLYADTDGFFATIPGADAETVKKKAKEFLDYINAKLPGLLELEYEGFYKRGFFVTKKKYAVIDEEDKITTRGLEIVRRDWSEIAKETQARVLEAILKHGDVEEAVRIVKEVTEKLSKYEVPTQHLVIHKQITRALNDYKAIGPHVAVAKRLAARGIKIRPGTVISYIVLKGSGRIGDRAIPFDEFDPAKHKYDAEYYIENQVLPAVERILRAFGYRKEDLRYQKTRQVGLGAWLKPKT
modifications: Polymerase D4YK derived from T. gorgonarius
B2: Therminator: 9° N exo−: A485L polymerase, commercial (protein, listed as Thermococcus gorgonarius)
chain: MILDTDYITEDGKPVIRIFKKENGEFKIDYDRNFEPYIYALLKDDSAIEDVKKITAERHGTTVRVVRAEKVKKKFLGRPIEVWKLYFTHPQDVPAIRDKIKEHPAVVDIYEYDIPFAKRYLIDKGLIPMEGDEELKMLAFDIETLYHEGEEFAEGPILMISYADEEGARVITWKNIDLPYVDVVSTEKEMIKRFLKVVKEKDPDVLITYNGDNFDFAYLKKRSEKLGVKFILGREGSEPKIQRMGDRFAVEVKGRIHFDLYPVIRRTINLPTYTLEAVYEAIFGQPKEKVYAEEIAQAWETGEGLERVARYSMEDAKVTYELGKEFFPMEAQLSRLVGQSLWDVSRSSTGNLVEWFLLRKAYERNELAPNKPDERELARRRESYAGGYVKEPERGLWENIVYLDFRSLYPSIIITHNVSPDTLNREGCEEYDVAPQVGHKFCKDFPGFIPSLLGDLLEERQKVKKKMKATIDPIEKKLLDYRQRLIKILANSFYGYYGYAKARWYCKECAESVTAWGRQYIETTIREIEEKFGFKVLYADTDGFFATIPGADAETVKKKAKEFLDYINAKLPGLLELEYEGFYKRGFFVTKKKYAVIDEEDKITTRGLEIVRRDWSEIAKETQARVLEAILKHGDVEEAVRIVKEVTEKLSKYEVPPEKLVIYEQITRDLKDYKATGPHVAVAKRLAARGIKIRPGTVISYIVLKGSGRIGDRAIPFDEFDPAKHKYDAEYYIENQVLPAVERILRAFGYRKEDLRYQKTRQVGLGAWLKPKT
B3: RT-521K: Tgo V93Q, D141A, E143A, A485L, I521L, E664K, K726R, A385V; SEQ ID NO:14 (protein)
chain: B2 chain with V93Q, D141A, E143A, A385V, E429G, F445L, I521L, E664K, K726R
modifications: T. go derived polymerase designated RT-521K
B4: RT-521: Tgo V93Q, D141A, E143A, A485L, I521L, K726R, E429G; SEQ ID NO:12 (protein)
chain: B2 chain with V93Q, D141A, E143A, E429G, I521L, K726R
modifications: T. go derived RT-521 polymerase
B5: Dpo4: commercial DNA polymerase (protein, UniProt Q97W02 1-352, looked up)
DNA polymerase IV: MIVLFVDFDYFYAQVEEVLNPSLKGKPVVVCVFSGRFEDSGAVATANYEARKFGVKAGIPIVEAKKILPNAVYLPMRKEVYQQVSSRIMNLLREYSEKIEIASIDEAYLDISDKVRDYREAYNLGLEIKNKILEKEKITVTVGISKNKVFAKIAADMAKPNGIKVIDDEEVKRLIRELDIADVPGIGNITAEKLKKLGINKLVDTLSIEFDKLKGMIGEAKAKYLISLARDEYNEPIRTRVRKSIGRIVTMKRNSRNLEEIKPYLFRAIEESYYKLDKRIPKAIHVVAVTEDLDIVSRGRTFPHGISKETAYSESVKLLQKILEEDERKIRRIGVRFSKFIEAIGLDKFFDT
B6: D4: prior art TgoT-derived RNA polymerase with E664Q, SEQ ID NO:3 (protein)
chain: B1 chain with P403L, K664Q
modifications: Prior art T. gorgonarius (Tgo) derived polymerase D4 with mutated patch 10 region
B7: D4K521: D4K with the further mutation I521L, SEQ ID NO:7 (protein)
chain: B1 chain with I521L
modifications: Mutant polymerase D4YK with I521L mutation, derived from T. gorgonarius

What was measured:
Ramos = test: IC50 of nucleoside drugs and TempN polymer on Ramos cells; format: cell-based; conditions: Homo sapiens
Description: The polymer linked to the targeting protein was then mixed with Nanocargo transfection reagent according to the manufacturer's instructions (Tecrea, UK), and added to Ramos cells at a final concentration of 40 nM (polymer concentration). After 96 hours incubation in a humidified atmosphere at 37° C. (5% CO2), WST-1 reagent (Roche, UK) was added to the cells to measure cell growth inhibition (FIG. 42). […] Only when the toxic polymer is targeted to the Ramos cells via CD20 is cell growth inhibited.

CCRF-CEM = test: IC50 of nucleoside drugs and TempN polymer on CCRF-CEM cells; format: cell-based; conditions: Homo sapiens
faNTP, DNA template = test: FANA synthesis by D4YK; format: biochemical
Description: (a) FANA synthesis at reduced faNTP concentrations. […] (b) Timecourse of YtRtemp8 (encoding 98 nt incorporations) synthesis by D4YK, showing substantial full-length synthesis in only 5 min. (c) Timecourse of ApLib5 (encoding 78 nt incorporations, of which 40 are random nucleotides) synthesis by D4YK, again showing substantial full length product in only 5 min.
Not only is FANA synthesis effective at relatively low FANA-NTP (faNTP) concentrations (less than 50 μM each, compared to 250 μM each for ANA synthesis) but synthesis of both a […] incorporation tRNA and an N40 library is efficient in less than 5 minutes (FIG. 15). This rapid synthesis and toleration of a wide range of substrate concentrations is indicative of an efficient polymerase, but neither single incorporation kinetics nor processivity have been investigated for D4YK.

[1] = system: arabinosyl-NTPs, DNA template; test: Polymerase dilution experiment, ANA synthesis, D4 vs D4K; format: biochemical
Description: In this experiment, the concentration of buffer (1× Thermopol (NEB) buffer), arabinosyl-NTPs (0.25 mM each), primer (200 nM), template (400 nM), the reaction volume ([…]) and extension conditions (1 min 94° C., 30 sec 50° C., 2 min 65° C.) were held constant.

[2] = system: arabinosyl-NTPs, DNA template; test: Polymerase dilution experiment, ANA synthesis, D4K vs D4K521; format: biochemical; conditions: for polymerase concentration at which full-length (+57 nt) ANA product is present: 0.125 mM each arabinosyl-NTP, 1 min 94° C., 30 sec 50° C., 2 min 65° C.
Description: In this experiment, the concentration of buffer (1× Thermopol (NEB) buffer), arabinosyl-NTPs (0.125 mM each), primer (200 nM), template (400 nM), the reaction volume ([…]) and extension conditions (1 min 94° C., 30 sec 50° C., 2 min 65° C.) were held constant.

FANA template = test: FANA reverse transcriptase screen (PCR from cDNA); format: biochemical; conditions: judged by PCR from the cDNA
Description: ANA and FANA were synthesised using D4YK from DNA primers against a biotinylated template. This was captured onto streptavidin-coated paramagnetic beads and the nascent ANA or FANA strand eluted using two washes in 30 mM NaOH. The single stranded products were neutralised, ethanol precipitated and used as a template to screen a panel of commercial polymerases as well as in-house engineered polymerases for RT activity.
We have learnt that RT-521 must be removed before PCR as even low concentrations of RT-521 inhibit PCR. In this case, the reverse transcription reactions were purified by Exol (NEB) treatment to remove unextended primers and 0.05 volumes (1 μl out of 20 μl reaction) were used as template for 20 μl PCR with FastStart Taq (Roche). If the reactions had been purified by a method which removed RT-521 (e.g. silica column or phenol:chloroform extraction) the PCR for the RT-521 reaction would have been expected to be positive, as observed in other experiments (FIG. 19).

Molecule	IC50 (Ramos)	IC50 (CCRF-CEM)	FANA RT activity (FANA template)	also measured
Nc1ccn([C@@H]2O[C@H](CO)C(O)C2O)c(=O)n1 (stereo partly drawn) [AraC, 9-beta-D-arabinofuranosyl-cytidine]	22.7 nM	12.9 nM	–	–
Nc1nc2c(ncn2[C@@H]2O[C@H](CO)C(O)C2O)c(=O)[nH]1 (stereo partly drawn) [AraG, 9-beta-D-arabinofuranosyl-guanosine]	~100000 nM	884 nM	–	–
Nc1nc(Cl)nc2c1ncn2[C@@H]1O[C@H](CO)[C@@H](O)[C@@H]1F [Clofarabine, 9-beta-D-fluoroarabinosyl-2′chloroadenosine]	18 nM	20 nM	–	–
Nc1ccn([C@@H]2O[C@H](CO)C(O)C2(F)F)c(=O)n1 (some centres unmarked) [GemC, 2′2′-difluorodeoxycytidine]	1.6 nM	11.7 nM	–	–
Nc1nc(F)nc2c1ncn2[C@@H]1O[C@H](CO)[C@@H](O)[C@@H]1O [Fludarabine, 9-beta-D-arabinofuranosyl-2′fluoroadenosine]	1300 nM	864 nM	–	–
B1	–	–	–	time for efficient FANA synthesis (faNTP, DNA template; 97 nt incorporation tRNA and N40 library): less than 5 minutes; time to substantial full-length FANA product (faNTP, DNA template; ApLib5 (78 nt incorporations, 40 random)): 5 min; time to substantial full-length FANA synthesis (faNTP, DNA template; YtRtemp8 (98 nt incorporations)): 5 min; faNTP concentration down to which FANA synthesis remains robust (faNTP, DNA template; YtRtemp9 (93 nt incorporations), each faNTP): ≥ 31.2 µM; FANA-NTP concentration at which FANA synthesis is effective (faNTP, DNA template; each faNTP, compared to 250 μM each for ANA synthesis): less than 50 μM; polymerase concentration at which full-length (+57 nt) ANA product is present ([1]; 0.25 mM each arabinosyl-NTP, 1 min 94° C., 30 sec 50° C., 2 min 65° C.): 18.8 nM; polymerase concentration for full-length ANA product relative to D4 ([1]; fraction of the concentration required for D4): less than 1/15; polymerase concentration at which full-length (+57 nt) ANA product is present [2]: 18.8 nM
B2	–	–	weak FANA RT activity	–
B3	–	–	robust FANA RT activity	–
B4	–	–	does have FANA RT activity; also recorded: effective FANA reverse transcriptase	–
B5	–	–	weak RT activity	–
B6	–	–	–	full-length (+57 nt) ANA product at 75 nM polymerase ([1]; 75 nM polymerase, 0.25 mM each arabinosyl-NTP): no full-length product; full-length (+57 nt) ANA product at 300 nM polymerase ([1]; 300 nM polymerase, 0.25 mM each arabinosyl-NTP): very little full-length
B7	–	–	–	polymerase concentration at which full-length (+57 nt) ANA product is present [2]: 2.3 nM; polymerase concentration for full-length ANA product relative to D4K ([2]; fraction of the concentration required for D4K): less than 1/8
